Experimental data reported in patent US20220193237A1 (Bristol-Myers Squibb, published 2022).
Substitutions are numbered along the chain they refer to. Numbers in names are those of the source. Like-named read-outs stand apart in the source and are kept apart here. Blank lines part the entries; values can stand above or below the binder they belong to.

Assays:
monomeric cyno CTLA-4 = biological target: T1, monomeric cyno CTLA-4 (cynomolgus macaque (Macaca fascicularis), UniProt G7PL88 36-161); assay: SPR, Fab, monomeric cyno CTLA-4 as analyte; KD (M, log axis 10^-9 to 10^-5) plotted against pH
T1 construct: also called CTLA-4 from the cynomolgus macaque Macaca fascicularis
T1 sequence: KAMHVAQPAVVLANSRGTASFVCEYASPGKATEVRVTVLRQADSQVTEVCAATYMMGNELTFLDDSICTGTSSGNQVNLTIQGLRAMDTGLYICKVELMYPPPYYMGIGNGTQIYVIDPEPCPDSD
Protocol: The pH dependence of binding of selected antibodies of the present invention to human CTLA-4 and cyno CTLA-4 was measured by surface plasmon resonance (SPR) spectroscopy, essentially as described in Example 3. Briefly, antibodies were studied as monovalent Fab fragments. Anti-human kappa polyclonal capture antibody (Southern Biotech, Ala. USA) was immobilized on a ethylenediamine-blocked CM4 sensor chip in a Biacore T200 surface plasmon resonance system. Fab fragments of selected antibodies of the present invention were then captured on one flow cell each. […] Running buffer was 20 mM BisTris, 150 mM NaCl, 0.05% Tween-20, 1 g/L BSA, at a pH ranging from 5.5 to 7.4 in 0.1-0.2 pH unit intervals (12 total). The surface was regenerated with 1/200 H₃PO₄ between cycles. […] Where required, the Rₘₐₓ was fixed by calculating expected binding based on capture level and apparent activity from other fits for the same Fab.

monomeric human CTLA-4 [1] = biological target: T2, monomeric human CTLA-4 (human, UniProt P16410 36-161, limits assumed); assay: SPR, captured Fab, pH 6.0
T2 construct: Soluble monomeric analyte in SPR; also called huCTLA-4
T2 sequence: T1 sequence with N14S, T18I, M106L
Protocol: (§1) Binding of selected variants to human CTLA-4 was determined essentially as described in Example 3. […] Nomenclature and sequences for these antibodies is provided at Tables 6 and 7, and in the sequence listing as summarized at Table 8.
(§2) Monomeric human CTLA-4 was flowed as analyte with up to 2 μM top concentration. Between cycles, the capture surface was regenerated with 75 mM phosphoric acid. Experiments were run on a BIACORE® T200 instrument at 37° C. Running buffers were HEPES buffered saline for pH 7.4 experiments and Bis-Tris buffered saline for lower pH experiments. […] Double referenced sensorgrams were fitted to a 1:1 Langmuir binding model with mass transport to determine equilibrium dissociation constants (KD), as well as association (kₐ) and dissociation (kd) rate constants where appropriate.

monomeric human CTLA-4 [2] = biological target: T2, monomeric human CTLA-4; assay: SPR, captured Fab, pH 6.0 vs 7.4
Protocol: as §1, §2

monomeric human CTLA-4 [3] = biological target: T2, monomeric human CTLA-4; assay: SPR, captured Fab, pH 7.4
Protocol: as §1, §2

[4] = biological target: T3, human CTLA-4 on 58 α-β-CTLA-4/CD3 ζ cells (human; mouse (mCD3ζ)); assay: flow cytometry (APC mean FI), Fab on 58αβ-CTLA4/mCD3ζ cells, pH 6.2
T3 construct: also called 58αβ-hCTLA4/mCD3ζ cells; 58αβ-CTLA4/mCD3ζ cells
Protocol: (§3) Antibodies were titrated from 100 μg/mL at a 1:4 dilution across 12 points in pH-specific buffers and incubated for 30-60 minutes. Buffers contained HBSS, 2% FBS^HI, 0.02% sodium azide, 2 mM EDTA, and sodium phosphate buffer (pH 5.4). Sodium phosphate buffer was added until desired pH was reached (7.2, 6.7, 6.2). Approximately 3e5 cells/well were tested for each cell line. […] Detection was done with a monovalent anti-hKappa secondary nanobody conjugated to Alexa647 and used at a dilution of 1:2000. Cells were fixed with BD Fix Solution I for 30 minutes prior to resuspension in pH-specific buffers and reading on the cytometer (BD Fortessa).
The experimental protocol was the same as used to obtain the data of FIGS. 16A-C.

[5] = biological target: T3, human CTLA-4 on 58 α-β-CTLA-4/CD3 ζ …; assay: cell-based or functional assay
[6] = biological target: T3, human CTLA-4 on 58 α-β-CTLA-4/CD3 ζ …; assay: cell-based or functional assay; remark: listed apart in the source
[7] = biological target: T3, human CTLA-4 on 58 α-β-CTLA-4/CD3 ζ …; assay: cell-based or functional assay; remark: listed apart in the source
[8] = biological target: T3, human CTLA-4 on 58 α-β-CTLA-4/CD3 ζ …; assay: flow cytometry, non-fucosylated IgG1 on 58αβ-CTLA4/mCD3ζ cells, pH 7.2
Protocol: as §3

[9] = biological target: T3, human CTLA-4 on 58 α-β-CTLA-4/CD3 ζ …; assay: flow cytometry, non-fucosylated IgG1 on 58αβ-CTLA4/mCD3ζ cells, pH 6.2
Protocol: as §3

[10] = biological target: T3, human CTLA-4 on 58 α-β-CTLA-4/CD3 ζ …; assay: flow cytometry, non-fucosylated IgG1 on 58αβ-CTLA4/mCD3ζ cells, pH 6.7
Protocol: as §3

monomeric human CTLA-4 [11] = biological target: T2, monomeric human CTLA-4; assay: SPR, captured Fab, pH 6.0 vs 7.4; remark: listed apart in the source
Protocol: (§4) Unless otherwise indicated, experiments were performed with a BIACORE® SPR surface plasmon resonance spectrometer (Biacore AB, Uppsala, Sweden). Antibodies were tested as monovalent Fab fragments to simplify analysis.
as §2

monomeric human CTLA-4 [12] = biological target: T2, monomeric human CTLA-4; assay: SPR, captured Fab, pH 7.4; remark: listed apart in the source
Protocol: as §4, §2

monomeric human CTLA-4 [13] = biological target: T2, monomeric human CTLA-4; assay: SPR, captured Fab, pH 6.0; remark: listed apart in the source
Protocol: as §4, §2

binding result (monomeric cyno CTLA-4): binds
Kd (monomeric human CTLA-4 [1]): 2.5 nM
kon (monomeric human CTLA-4 [1]): 940000 M⁻¹ s⁻¹
t1/2 (monomeric human CTLA-4 [1]): 4.82 min
KD 7.4/6 (APBP) (monomeric human CTLA-4 [2]): 17
ka 6/7.4 (monomeric human CTLA-4 [2]): 2.1
t1/2 6/7.4 (monomeric human CTLA-4 [2]): 8.8
Kd (monomeric human CTLA-4 [3]): 46 nM
kon (monomeric human CTLA-4 [3]): 460000 M⁻¹ s⁻¹
t1/2 (monomeric human CTLA-4 [3]): 0.55 min
EC50 (read off the curve) [4]: ~0.1 µg/mL
B1: ipi.100 Fab (Fab, V domains shown)
VH: QVQLVESGGGVVQPGRSLRLSCAASGFTFSHYTMHWVRQAPGKGLEWVTFISYDGNNKYYADSVKGRFTISRDNSKNTLYLQMNSLRAEDTAIYYCARTGWLGPFDYWGQGTLVTVSS
VL: not shown
notes: Tested as monovalent Fab

IC50 (read off the curve), mIL-2 secretion, 58αβ-hCTLA/mCD3ζ:rhB7-1 blocking assay, 18 h, pH 7.0 [5]: ~1 nM
IC50 (read off the curve), mIL-2 secretion, 58αβ-hCTLA/mCD3ζ:rhB7-1 blocking assay, 18 h, pH 7.2 [6]: ~1 nM
IC50 (read off the curve), mIL-2 secretion, 58αβ-hCTLA/mCD3ζ:rhB7-1 blocking assay, 18 h, pH 6.8 [7]: ~1 nM
Cmax (MFI) [8]: 125000 MFI
EC50 [8]: 2.8 nM
Cmax (MFI) [9]: 122000 MFI
EC50 [9]: 2.94 nM
Cmax (MFI) [10]: 126000 MFI
EC50 [10]: 2.85 nM
B2: ipi.100, non-fucosylated IgG1 (antibody, V domains shown)
VH: B1 VH
VL: not shown
modifications: non-fucosylated N-linked glycan
notes: Non-fucosylated full-length human IgG1; also called Ipi.100 IgG1-NF

IC50 (read off the curve), mIL-2 secretion, 58αβ-hCTLA/mCD3ζ:rhB7-1 blocking assay, 18 h, pH 7.0 [5]: ~1 nM
IC50 (read off the curve), mIL-2 secretion, 58αβ-hCTLA/mCD3ζ:rhB7-1 blocking assay, 18 h, pH 7.2 [6]: ~1 nM
IC50 (read off the curve), mIL-2 secretion, 58αβ-hCTLA/mCD3ζ:rhB7-1 blocking assay, 18 h, pH 6.8 [7]: ~0.7 nM
Cmax (MFI) [8]: 124000 MFI
EC50 [8]: 3.81 nM
Cmax (MFI) [9]: 121000 MFI
EC50 [9]: 3.52 nM
Cmax (MFI) [10]: 126000 MFI
EC50 [10]: 4.06 nM
B3: ipi.101, non-fucosylated IgG1 (antibody, V domains shown)
VH: B1 VH with N56H
VL: not shown
modifications: non-fucosylated N-linked glycan
notes: Non-fucosylated full-length human IgG1; also called Ipi.101 IgG1-NF

KD 7.4/6 (APBP) (monomeric human CTLA-4 [11]): 0.8
Kd (monomeric human CTLA-4 [1]): 6.8 nM
kon (monomeric human CTLA-4 [1]): 1.2e+06 M⁻¹ s⁻¹
t1/2 (monomeric human CTLA-4 [1]): 1.38 min
Kd (monomeric human CTLA-4 [12]): 16 nM
koff (monomeric human CTLA-4 [12]): 0.011 s⁻¹
kon (monomeric human CTLA-4 [12]): 670000 M⁻¹ s⁻¹
KD 7.4/6 (APBP) (monomeric human CTLA-4 [2]): 0.9
ka 6/7.4 (monomeric human CTLA-4 [2]): 1.4
t1/2 6/7.4 (monomeric human CTLA-4 [2]): 0.6
Kd (monomeric human CTLA-4 [3]): 5.8 nM
kon (monomeric human CTLA-4 [3]): 880000 M⁻¹ s⁻¹
t1/2 (monomeric human CTLA-4 [3]): 2.27 min
Kd (monomeric human CTLA-4 [13]): 13 nM
koff (monomeric human CTLA-4 [13]): 0.0065 s⁻¹
kon (monomeric human CTLA-4 [13]): 490000 M⁻¹ s⁻¹
B4: ipi.2 Fab (Fab, V domains shown)
VH: B1 VH with H31S, N57H
VL: not shown
notes: Tested as monovalent Fab; also called N56H (Kabat)
